Measured values: article PMC12484072

Target: SaNsrP, transmembrane permease of the BceAB-type ABC transporter SaNsrFP from Streptococcus agalactiae (S. agalactiae)
Assay: SAXS

## SaNsrF, nucleotide-binding domain of the BceAB-type ABC transporter SaNsrFP from Streptococcus agalactiae (natural protein)
  stoichiometry N: 2
